Reference: article PMC9883448

Columns and labels:
Assay in all cases: FRET or BRET; apparent FRET efficiency by donor (CFP) dequenching after photobleaching of the acceptor (YFP) with 514 nm in a membrane region of whole Xenopus oocytes that co-express the two labelled subunits (cRNAs 1:1)
[1] = target: human mGluR5 FRET sensor subunit (CFP or YFP in the intracellular loop i2, C-terminal tail replaced by a GABAB tail)
[2] = target: human mGluR3 FRET sensor subunit (CFP or YFP in the intracellular loop i2, C-terminal tail replaced by a GABAB tail)
[3] = target: human mGluR4 FRET sensor subunit (CFP or YFP in the intracellular loop i2, C-terminal tail replaced by a GABAB tail)
[4] = target: human mGluR8 FRET sensor subunit (CFP or YFP in the intracellular loop i2, C-terminal tail replaced by a GABAB tail)

Row | Substance | increase of donor light intensity after photobleaching of the acceptor (FRET efficiency) [1] | apparent FRET efficiency (donor dequenching) [2] | apparent FRET efficiency (donor dequenching) [3] | apparent FRET efficiency (donor dequenching) [4]
1 | human mGluR5 FRET sensor subunit (CFP or YFP in the intracellular loop i2, C-terminal tail replaced by a GABAB tail) (receptor) | 23% | – | – | –
2 | human mGluR2 FRET sensor subunit (CFP or YFP in the intracellular loop i2, C-terminal tail replaced by a GABAB tail) (receptor) | – | 35% | 35% | 35%
3 | human mGluR4 FRET sensor subunit (CFP or YFP in the intracellular loop i2, C-terminal tail replaced by a GABAB tail) (receptor) | – | – | – | 13%
